# Measurements reported in patent US20090036382A1, “TGF-Beta Modulators and Use Thereof” (Universita' Degli Studi Di Padova, priority 2006, published 2009).
# B1: EMI domain: cysteine-rich domain of emilin-1, residues 55-131, SEQ ID NO 2; in some experiments Flag-tagged and GPI-anchored (protein)
# chain: RHRNWCAYVVTRTVSCVLEDGVETYVKYQPCAWGQPQCPQSIMYRRFLRPRYRVAYKTVTDMEWRCCQGYGGDDCAE
# modifications: sometimes Flag tag and GPI anchor; homo sapiens
# notes: in some experiments Flag-tagged and GPI-anchored
# Molecular target: T1, TGFBRII (type II TGF-β receptor) (Homo sapiens, UniProt P37173)
# T1 construct: expressed in transfected cells; host or cells: HEK293T
# T1 sequence (P37173 23-567): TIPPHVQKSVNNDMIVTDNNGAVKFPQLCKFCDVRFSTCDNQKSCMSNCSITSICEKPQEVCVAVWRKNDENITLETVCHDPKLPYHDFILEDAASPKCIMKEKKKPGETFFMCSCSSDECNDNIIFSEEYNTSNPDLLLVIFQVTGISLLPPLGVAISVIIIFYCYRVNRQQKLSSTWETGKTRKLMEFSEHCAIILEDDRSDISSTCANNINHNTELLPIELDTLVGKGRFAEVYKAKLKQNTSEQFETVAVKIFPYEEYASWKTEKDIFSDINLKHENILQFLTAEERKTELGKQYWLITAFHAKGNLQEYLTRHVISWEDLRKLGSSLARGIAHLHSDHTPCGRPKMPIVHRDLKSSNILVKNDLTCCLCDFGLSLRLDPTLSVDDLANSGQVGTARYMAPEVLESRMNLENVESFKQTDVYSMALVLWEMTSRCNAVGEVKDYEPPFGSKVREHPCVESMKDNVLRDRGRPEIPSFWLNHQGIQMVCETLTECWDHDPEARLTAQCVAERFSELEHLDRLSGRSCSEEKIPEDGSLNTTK
# Experiment: 125I TGF-β1 / TGFBRII cross-linking (DSS) and anti-HA immunoprecipitation in transfected HEK293T cells
# Type: binding
# Settings: HEK293T transfected with TGFBRII-HA and Flag-EMI-domain-GPI; iodinated TGF-β1; FIG. 2A
# Experimental: Experiments were performed according to standard methods (Massague, 1987). Briefly, a solution of iodinated TGF-β1 (Amersham) was applied to HEK293T cells grown in 24 well plates and transfected with a plasmid carrying the sequence of TGFBRII (type II TGF-β receptor) fused to the HA epitope. After appropriate incubation and washing, the cell layer was exposed to a solution of DSS (disuccinimidyl suberate), a compound that favors formation of covalent cross-links between interacting molecules. The cell layer was extracted with immunoprecipitation buffer (RIPA-buffer) and subjected to the immunoprecipitation procedure with anti-HA antibody. The immunoprecipitate was solubilized with FSB (final sample buffer), separated by SDS-PAGE and radioactive complexes were detected by autoradiography. Molar excess of unlabeled TGF-β was used in parallel experiments. In other experiments, cells were simultaneously transfected with TGFBRII and with expression vectors driving expression of the emilin-1 EMI domain bound to GPI (glycosylphosphatidylinositol), a moiety which anchors the EMI domain to the cell membrane, that was tagged with the Flag epitope (Flag-EMI-domain-GPI).
# Transfected cells, usually HEK293T, were incubated in Optimem (Invitrogen) for 24 hours prior to collection. […]
molecule,measurement,value
B1,Competition with TGF-β for binding to TGFBRII (TGFBRII/TGF-β complex band),does non compete with TGF-β for binding to TGFBRII
